Measurements reported in the Immune Epitope Database (IEDB).

Columns and labels:
HLA-A*68:01 = assay: IEDB peptide-MHC binding, purified MHC/competitive/radioactivity; filed as Kd, often an IC50 or EC50 that approximates it; ≥ and ≤ were set here for values at or beyond the usual limits of such assays
HLA-B*54:01 = assay: as above
HLA-A*03:01 [1] = assay: as above
HLA-A*02:06 = assay: as above
HLA-A*33:01 = assay: as above
HLA-A*02:02 = assay: as above
HLA-B*35:01 [2] = assay: as above
HLA-B*07:02 = assay: as above
HLA-B*53:01 = assay: as above
HLA-B*51:01 [3] = assay: as above
HLA-A*11:01 [4] = assay: as above
HLA-A*02:03 = assay: as above
HLA-A*31:01 [5] = assay: as above
HLA-A*68:02 = assay: as above
HLA-A*02:01 = assay: as above
HLA-A*24:03 = assay: IEDB peptide-MHC binding, purified MHC/competitive/fluorescence; filed as Kd, often an IC50 or EC50 that approximates it; ≥ and ≤ were set here for values at or beyond the usual limits of such assays; conditions: source organism: Bacillus anthracis str. A0488
HLA-A*03:01 [6] = assay: IEDB peptide-MHC binding, purified MHC/direct/fluorescence; filed as Kd, often an IC50 or EC50 that approximates it; ≥ and ≤ were set here for values at or beyond the usual limits of such assays
HLA-A*11:01 [7] = assay: as above
HLA-A*31:01 [8] = assay: IEDB peptide-MHC binding, purified MHC/competitive/fluorescence; filed as Kd, often an IC50 or EC50 that approximates it; ≥ and ≤ were set here for values at or beyond the usual limits of such assays
HLA-C*12:03 = assay: IEDB peptide-MHC binding, purified MHC/direct/fluorescence; filed as Kd, often an IC50 or EC50 that approximates it; ≥ and ≤ were set here for values at or beyond the usual limits of such assays
HLA-B*35:01 [9] = assay: IEDB peptide-MHC binding, purified MHC/competitive/fluorescence; filed as Kd, often an IC50 or EC50 that approximates it; ≥ and ≤ were set here for values at or beyond the usual limits of such assays; conditions: source organism: Yersinia pestis Antiqua
HLA-A*26:01 = assay: as above; conditions: source organism: Yersinia pestis Antiqua
HLA-A*01:01 [10] = assay: as above; conditions: source organism: Yersinia pestis Antiqua
HLA-B*18:01 = assay: IEDB peptide-MHC binding, purified MHC/competitive/radioactivity; filed as Kd, often an IC50 or EC50 that approximates it; ≥ and ≤ were set here for values at or beyond the usual limits of such assays; conditions: source organism: Hepatitis C virus (isolate H)
HLA-B*40:02 = assay: as above; conditions: source organism: Hepatitis C virus (isolate H)
HLA-B*08:01 = assay: as above; conditions: source organism: Hepatitis C virus (isolate H)
HLA-B*44:03 = assay: as above; conditions: source organism: Hepatitis C virus (isolate H)
HLA-B*44:02 = assay: as above; conditions: source organism: Hepatitis C virus (isolate H)
HLA-A*01:01 [11] = assay: as above; conditions: source organism: Hepatitis C virus (isolate H)
HLA-B*40:01 = assay: as above; conditions: source organism: Hepatitis C virus (isolate H)
HLA-B*51:01 [12] = assay: IEDB peptide-MHC binding, purified MHC/competitive/fluorescence; filed as Kd, often an IC50 or EC50 that approximates it; ≥ and ≤ were set here for values at or beyond the usual limits of such assays; conditions: source organism: Rickettsia felis URRWXCal2
HLA-A*03:01 [13] = assay: as above; conditions: source organism: Bacillus cereus G9241
[14] = source organism: Vaccinia virus WR
[15] = source organism: Yersinia enterocolitica
[16] = source organism: Yersinia pestis Antiqua
[17] = source organism: Hepatitis C virus (isolate H)
[18] = source organism: Escherichia coli O157:H7

With TFMIITSTK the Kd (HLA-A*68:01; [14]) was 104 nM, the Kd (HLA-B*54:01; [14]) was no less than 42600 nM and the Kd (HLA-A*03:01 [1]; [14]) was 404 nM. It also gave a Kd (HLA-A*02:06; [14]) of no less than 77100 nM, a Kd (HLA-A*33:01; [14]) of 619 nM and a Kd (HLA-A*02:02; [14]) of no less than 63700 nM. The Kd (HLA-B*35:01 [2]; [14]) was 19700 nM, the Kd (HLA-B*07:02; [14]) was no less than 77500 nM and the Kd (HLA-B*53:01; [14]) was no less than 78200 nM. The Kd (HLA-B*51:01 [3]; [14]) was no less than 77500 nM, the Kd (HLA-A*11:01 [4]; [14]) was 189 nM and the Kd (HLA-A*02:03; [14]) was no less than 30800 nM. The Kd (HLA-A*31:01 [5]; [14]) was 367 nM, the Kd (HLA-A*68:02; [14]) was no less than 76900 nM and the Kd (HLA-A*02:01; [14]) was no less than 78100 nM.
For QFMEGIYKL, the Kd (HLA-A*24:03) was 4.1 nM.
With TVWNRLIAR the Kd (HLA-A*03:01 [6]; [15]) was 39.3 nM, the Kd (HLA-A*11:01 [7]; [15]) was 32.6 nM and the Kd (HLA-A*31:01 [8]; [16]) was no more than 1 nM.
RAFKYPFIK gave a Kd (HLA-A*03:01 [6]; source organism: Fowlpox virus) of 6.8 nM, a Kd (HLA-A*11:01 [7]; source organism: Fowlpox virus) of 1.7 nM and a Kd (HLA-A*31:01 [8]; source organism: Fowlpox virus) of 60 nM.
Sequence FASSRMSTY has a Kd (HLA-C*12:03; [16]) of no more than 1 nM, a Kd (HLA-B*35:01 [9]) of 0.2 nM and a Kd (HLA-A*26:01) of 223 nM. For the same sequence, the Kd (HLA-A*01:01 [10]) was 979 nM.
In the case of KVFSFWLLCK, the Kd (HLA-A*68:01; [14]) is reported as 42.8 nM, the Kd (HLA-B*54:01; [14]) is reported as 2550 nM and the Kd (HLA-A*03:01 [1]; [14]) is reported as 6.3 nM. It also gave a Kd (HLA-A*02:06; [14]) of 8660 nM, a Kd (HLA-A*33:01; [14]) of 863 nM and a Kd (HLA-A*02:02; [14]) of 4250 nM. It also gave a Kd (HLA-B*35:01 [2]; [14]) of no less than 47400 nM, a Kd (HLA-B*07:02; [14]) of no less than 44900 nM and a Kd (HLA-B*53:01; [14]) of 2340 nM. For the same sequence, the Kd (HLA-B*51:01 [3]; [14]) was 17000 nM, the Kd (HLA-A*11:01 [4]; [14]) was 3.27 nM and the Kd (HLA-A*02:03; [14]) was 3360 nM. For the same sequence, the Kd (HLA-A*31:01 [5]; [14]) was 9.25 nM, the Kd (HLA-A*68:02; [14]) was no less than 49400 nM and the Kd (HLA-A*02:01; [14]) was 1190 nM.
Sequence HPALVFDITK has a Kd (HLA-A*68:01; [17]) of 2.32 nM, a Kd (HLA-B*54:01; [17]) of 130 nM and a Kd (HLA-A*03:01 [1]; [17]) of 4200 nM. It also gave a Kd (HLA-A*02:06; [17]) of no less than 69800 nM, a Kd (HLA-A*33:01; [17]) of no less than 38400 nM and a Kd (HLA-A*02:02; [17]) of no less than 47200 nM. For the same sequence, the Kd (HLA-B*35:01 [2]; [17]) was 433 nM, the Kd (HLA-B*07:02; [17]) was 3040 nM and the Kd (HLA-B*53:01; [17]) was 478 nM. The Kd (HLA-B*51:01 [3]; [17]) was no less than 69600 nM, the Kd (HLA-B*18:01) was no less than 28200 nM and the Kd (HLA-A*11:01 [4]; [17]) was 862 nM. It also gave a Kd (HLA-B*40:02) of no less than 70800 nM, a Kd (HLA-B*08:01) of no less than 52100 nM and a Kd (HLA-B*44:03) of no less than 63300 nM. The Kd (HLA-A*02:03; [17]) was 7410 nM, the Kd (HLA-B*44:02) was no less than 70200 nM and the Kd (HLA-A*01:01 [11]) was 6400 nM. It also gave a Kd (HLA-B*40:01) of no less than 69600 nM, a Kd (HLA-A*31:01 [5]; [17]) of no less than 70000 nM and a Kd (HLA-A*68:02; [17]) of no less than 69800 nM. For the same sequence, the Kd (HLA-A*02:01; [17]) was no less than 69400 nM.
Work on GMLVGRLGK yielded a Kd (HLA-A*03:01 [6]; [18]) of 29.3 nM, a Kd (HLA-A*11:01 [7]; [18]) of 191 nM and a Kd (HLA-A*31:01 [8]; source organism: Escherichia coli O157:H7 str. Sakai) of 13.7 nM.
IAMESIVIW showed a Kd (HLA-C*12:03; source organism: Human immunodeficiency virus 1) of no more than 1 nM.
IAYESSNKI was tested, and the Kd (HLA-C*12:03; source organism: Rickettsia felis URRWXCal2) was 7 nM and the Kd (HLA-B*51:01 [12]) was 196 nM.
KLAETRMGY showed a Kd (HLA-A*03:01 [6]; [18]) of 71.1 nM, a Kd (HLA-A*11:01 [7]; [18]) of 932 nM and a Kd (HLA-A*31:01 [8]; source organism: Escherichia coli) of 153 nM.
ILIFLRNFR was tested, and the Kd (HLA-A*03:01 [13]) was no less than 20000 nM and the Kd (HLA-A*31:01 [8]; source organism: Bacillus cereus G9241) was 5.1 nM.
